Paper doi:10.1101/2025.06.29.662183

Molecular target: CHIKV nsP2 protease (Chikungunya virus)
Experiment: BLI

In the case of pantinin-1 (peptide), the Kd is reported as 9.29 µM.
